From paper PMC12598741 (2025)

Legend:
Test in all cases: BLI
[1] = target: h11A4 x L15-1 hIgG4
[2] = target: h11A4 x L15-4 hIgG4
[3] = target: h11A4 x L15-5 hIgG4
[4] = target: h11A4 x L15-3 hIgG4
[5] = target: h11A4 x L15-2 hIgG4
[6] = target: L15
[7] = target: 17C7 x L15 hIgG4

B1: mouse CD16 (mCD16), his-tagged (receptor)
chain: ALPKAVVKLDPPWIQVLKEDMVTLMCEGTHNPGNSSTQWFHNGRSIRSQVQASYTFKATVNDSGEYRCQMEQTRLSDPVDLGVISDWLLLQTPQRVFLEGETITLRCHSWRNKLLNRISFFHNEKSVRYHHYKSNFSIPKANHSHSGDYYCKGSLGSTQHQSKPVTITVQDPATTSSISLVWYHT
[1]
  Kd: 163 nM
[2]
  Kd: 211 nM
[3]
  Kd: 197 nM
[4]
  Kd: 218 nM
[5]
  Kd: 119 nM
[6]
  Kd: 126 nM
[7]
  Kd: 16.3 nM
